For this test, the target named is T1, Mcl-1 (Mus musculus, UniProt P97287).
T1 construct: GST (cleaved yes); made in house; host or cells: E. coli
Description: Phage ELISA (titration and competition) of phage-displayed BH3 domains. The test is classed as binding. The conditions noted are these: Bak BH3 mutants; from Table 4e. An excerpt: In order to create a FLAG-tagged form of the sequence, an oligonucleotide encoding the FLAG epitope was employed to loop-in the required sequence at the N-terminus of the peptide sequences, already fused to gene 3 as described above, using the Kunkel mutagenesis method (Kunkel et al. Methods Enzymol 204:125-139, 1991). For the alanine scanning constructs and other point mutations of the BimBH3 or other BH3 sequence, oligonucleotides with the desired codon mismatch were employed in Kunkel mutagenesis reactions on the FLAG-BimBH3 or FLAG-BadBH3 template. […]
All ELISA's were performed as described previously (Fairlie et al. J Biol Chem 279:2125-2134, 2004). […] Following washing with PBS/Tween, bound phage were detected using a horseradish peroxidase-conjugated anti-M13 antibody. […]
In an initial assay, the BimBH3 and other BH3 phage were tested for their ability to bind directly to immobilised Bcl-xL and Mcl-1. […] The specificity of the interactions were further assessed using a competition assay in which phage binding to the immobilised protein was competed with the corresponding recombinant protein in solution. The IC50 values obtained are as presented in Table 3 and were very similar to those determined with BimBH3 and BadBH3 synthetic peptides as measured by surface plasmon resonance on a BIAcore instrument (Chen et al. 2005 supra) and using isothermal calorimetry (unpublished data). […]

From US8686110B2, “Therapeutic pro-apoptotic BH3-like molecules and methods for generating and/or selecting the same” (The Walter and Eliza Hall Institute of Medical Research, priority 2005, dated 2014) come the findings set out here.

T1 sequence (P97287 152-308 limits assumed): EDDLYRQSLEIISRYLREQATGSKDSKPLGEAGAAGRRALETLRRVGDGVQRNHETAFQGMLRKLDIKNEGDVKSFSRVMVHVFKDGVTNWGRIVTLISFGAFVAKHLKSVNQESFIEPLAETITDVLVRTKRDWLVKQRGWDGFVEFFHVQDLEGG

Regarding “V8A (PSSTMGQAGRQLAIIGDDINRRYDSE) [Bim V8A]”, the “selectivity among pro-survival proteins, in words” value is “selective for Mcl-1”.

Take “I19A (PSSTMGQVGRQLAIIGDDANRRYDSE) [Bim I19A]”: the “selectivity among pro-survival proteins, in words” value is “selective for Mcl-1”.
